According to US20220251241A1 (NGM BIOPHARMACEUTICALS, published 2022):

B1: hz24F7.v2 S91A (antibody, human IgG1, kappa, N297G, V domains shown)
VH: QVQLVQSGAEVKKPGASVKVSCKASGYTFTDYEMHWVRQAPGQRLEWMGAIDPETGGTAYNQKFKGRVTITADKSASTAYMELSSLRSEDTAVYYCTREGYSYEGGGYYFDYWGQGTLVTVSS
VL: DIQMTQSPSSLSASVGDRVTITCSVSSSVSYMYWYQQKPGKAPKLLIYDTSNLASGVPSRFSGSGSGTDFTFTISSLQPEDIATYYCQQWASYPTFGQGTKLEIKR
notes: hz24F7.v2 with a substitution in light chain CDR3
B2: hz24F7.v2 S92T (antibody, human IgG1, kappa, N297G, V domains shown)
VH: QVQLVQSGAEVKKPGASVKVSCKASGYTFTDYEMHWVRQAPGQRLEWMGAIDPETGGTAYNQKFKGRVTITADKSASTAYMELSSLRSEDTAVYYCTREGYSYEGGGYYFDYWGQGTLVTVSS
VL: DIQMTQSPSSLSASVGDRVTITCSVSSSVSYMYWYQQKPGKAPKLLIYDTSNLASGVPSRFSGSGSGTDFTFTISSLQPEDIATYYCQQWSTYPTFGQGTKLEIKR
notes: as for B1
B3: hz24F7.v2 S91T (antibody, human IgG1, kappa, N297G, V domains shown)
VH: QVQLVQSGAEVKKPGASVKVSCKASGYTFTDYEMHWVRQAPGQRLEWMGAIDPETGGTAYNQKFKGRVTITADKSASTAYMELSSLRSEDTAVYYCTREGYSYEGGGYYFDYWGQGTLVTVSS
VL: DIQMTQSPSSLSASVGDRVTITCSVSSSVSYMYWYQQKPGKAPKLLIYDTSNLASGVPSRFSGSGSGTDFTFTISSLQPEDIATYYCQQWTSYPTFGQGTKLEIKR
notes: as for B1
B4: hz24F7.v2 S92Y (antibody, human IgG1, kappa, N297G, V domains shown)
VH: QVQLVQSGAEVKKPGASVKVSCKASGYTFTDYEMHWVRQAPGQRLEWMGAIDPETGGTAYNQKFKGRVTITADKSASTAYMELSSLRSEDTAVYYCTREGYSYEGGGYYFDYWGQGTLVTVSS
VL: DIQMTQSPSSLSASVGDRVTITCSVSSSVSYMYWYQQKPGKAPKLLIYDTSNLASGVPSRFSGSGSGTDFTFTISSLQPEDIATYYCQQWSYYPTFGQGTKLEIKR
notes: as for B1
B5: hz24F7.v2 S91L (antibody, human IgG1, kappa, N297G, V domains shown)
VH: QVQLVQSGAEVKKPGASVKVSCKASGYTFTDYEMHWVRQAPGQRLEWMGAIDPETGGTAYNQKFKGRVTITADKSASTAYMELSSLRSEDTAVYYCTREGYSYEGGGYYFDYWGQGTLVTVSS
VL: DIQMTQSPSSLSASVGDRVTITCSVSSSVSYMYWYQQKPGKAPKLLIYDTSNLASGVPSRFSGSGSGTDFTFTISSLQPEDIATYYCQQWLSYPTFGQGTKLEIKR
B6: hz24F7.v2 S91Y (antibody, human IgG1, kappa, N297G, V domains shown)
VH: QVQLVQSGAEVKKPGASVKVSCKASGYTFTDYEMHWVRQAPGQRLEWMGAIDPETGGTAYNQKFKGRVTITADKSASTAYMELSSLRSEDTAVYYCTREGYSYEGGGYYFDYWGQGTLVTVSS
VL: DIQMTQSPSSLSASVGDRVTITCSVSSSVSYMYWYQQKPGKAPKLLIYDTSNLASGVPSRFSGSGSGTDFTFTISSLQPEDIATYYCQQWYSYPTFGQGTKLEIKR
notes: as for B1
B7: hz24F7.v2 S92D (antibody, human IgG1, kappa, N297G, V domains shown)
VH: QVQLVQSGAEVKKPGASVKVSCKASGYTFTDYEMHWVRQAPGQRLEWMGAIDPETGGTAYNQKFKGRVTITADKSASTAYMELSSLRSEDTAVYYCTREGYSYEGGGYYFDYWGQGTLVTVSS
VL: DIQMTQSPSSLSASVGDRVTITCSVSSSVSYMYWYQQKPGKAPKLLIYDTSNLASGVPSRFSGSGSGTDFTFTISSLQPEDIATYYCQQWSDYPTFGQGTKLEIKR
notes: as for B1
B8: antibody 9F8 (antibody, V domains shown)
VH: QVQLQQPGAELVRPGSSVKLSCKASGYAFTTYWMHWVKQRPIQGLEWIGNIDPSDSETHYNQKFRDKATLTVDKSSSTAYMQLSSLTSEDSAVYYCARDYGAFDVWGTGTTVTVSS
VL: QAVVTQESALTTSSGETVTLTCRSSTGAVTTRNFASWVQEKPDHLFTGLIGGTNNRAPGVPARFSGSLIGDKAALTITGAQTEDEAIYFCALWYSNLWVFGGGTKLTVL
notes: Mouse hybridoma monoclonal antibody
B9: antibody 55B12 (antibody, V domains shown)
VH: QVQLQQPGAELVKPGASVKLSCKASGYTFTNYWMHWVKQRPGQGLEWIGNIDPSDSETHYNQKFKDKATLAVDKSSSTAYMQLSSLTSEDSAVYYCAREDSSGYGAYWGQGTLVTVSA
VL: QIVLTQSPAIMSASPGEKVTMTCSASSSVNYMHWYQQKSGTSPKRWIYDTSKLASGVPDRFSGSGSGTSYSLTISSMEAEDAATYYCQQWSSHPLTFGAGTKLELK
notes: as for B8
B10: antibody 65G8 (antibody, V domains shown)
VH: QVQLQQSGPQLVRPGASVKISCKASGYSFTSYWMHWVKQRPGQGLEWIGMIDPSDSETRLNQKFKDKATLTIDKSSSTAYMQLSSPTSEDSAVYYCTRDYFDYWGQGTTLTVSS
VL: QIVLTQSPAIMSTSPGEKVTMTCSASSSVSYMYWYQQKPGSSPRLLIYDTSNLASGVPVRFSGSGSGTSYSLTISRMEAEDAATYYCQQWSSYPYTFGGGTKLEIK
notes: as for B8

What was measured:
[1] = target: T1, HTRA1 (construct not given) (Homo sapiens (Human), UniProt Q92743 23-480, limits assumed); test: SPR (Biacore)
T1 sequence (Q92743 23-480 limits assumed): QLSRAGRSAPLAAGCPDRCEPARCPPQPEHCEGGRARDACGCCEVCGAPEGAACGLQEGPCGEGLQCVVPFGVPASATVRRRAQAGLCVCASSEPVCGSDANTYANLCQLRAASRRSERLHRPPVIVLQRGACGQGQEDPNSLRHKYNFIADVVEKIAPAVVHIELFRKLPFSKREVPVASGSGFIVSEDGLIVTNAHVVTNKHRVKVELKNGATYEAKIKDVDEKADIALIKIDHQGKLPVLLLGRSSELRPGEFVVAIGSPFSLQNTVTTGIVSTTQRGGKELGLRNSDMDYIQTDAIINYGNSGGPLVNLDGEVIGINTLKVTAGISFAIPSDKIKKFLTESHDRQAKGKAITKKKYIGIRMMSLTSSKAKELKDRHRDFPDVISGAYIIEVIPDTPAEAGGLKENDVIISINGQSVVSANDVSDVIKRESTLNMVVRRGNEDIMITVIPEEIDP
Method: (§1) The binding affinities of anti-HTRA1 antibodies to human HTRA1 were measured using a Biacore system (GE Healthcare Life Sciences). Briefly, anti-Fc antibody (Sigma-Aldrich) was immobilized on all four flow cells of a CMS chip using amine coupling reagents (GE Healthcare LifeSciences). Antibodies were captured on flow cells 2, 3, and 4 using flow cell 1 as a reference. Concentrations ranging from 3.3-10 nM of human delta N-HTRA1 were injected at a flow rate of 50 μL/min at 37° C. Kinetic data were collected over time and fit using the simultaneous global fit equation to yield affinity constants (KD values) for each antibody.
In order to determine whether a hz24F7.v2 variant, comprising one of the amino acid substitutions disclosed in Table 15, retains its HTRA1 binding capability, functional characterization was performed via an SPR assay as described herein and an HTRA1 enzyme assay.

[2] = target: T1, HTRA1 (construct not stated in the …); test: cell-based or functional assay
[3] = target: T1, HTRA1 (construct not stated in the …); test: cell-based or functional assay; remark: listed apart in the source
[4] = target: T1, HTRA1 (construct not stated in the …); test: SPR (Biacore); affinity at baseline
[5] = target: T1, HTRA1 (construct not stated in the …); test: cell-based or functional assay; remark: listed apart in the source
[6] = target: human delta N-HTRA1 (amino acids 156-480 of SEQ ID NO:1) (human, UniProt Q92743 156-480); test: SPR (Biacore); antibody captured by anti-Fc, human delta N-HTRA1 injected; temperature of this table not stated
Chain of human delta N-HTRA1 (amino acids 156-480 of SEQ ID NO:1) (Q92743 156-480, stated change not applied): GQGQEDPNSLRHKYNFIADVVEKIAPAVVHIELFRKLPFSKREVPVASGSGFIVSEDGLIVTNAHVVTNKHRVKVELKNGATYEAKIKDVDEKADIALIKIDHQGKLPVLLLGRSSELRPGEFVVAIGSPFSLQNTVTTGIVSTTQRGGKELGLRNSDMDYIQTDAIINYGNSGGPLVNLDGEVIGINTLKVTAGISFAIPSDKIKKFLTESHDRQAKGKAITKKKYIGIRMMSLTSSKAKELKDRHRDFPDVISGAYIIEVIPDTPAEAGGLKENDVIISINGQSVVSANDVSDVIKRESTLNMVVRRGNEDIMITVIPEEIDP
Method: as §1

[7] = target: T1, HTRA1 (construct not stated in the …); test: cell-based or functional assay; remark: listed apart in the source
[8] = target: T1, HTRA1 (construct not stated in the …); test: protease inhibition assay, casein substrate (EnzChek); apparent Ki (Ki^app)
Source text: Two enzymatic assays were used to characterize HTRA1 protease activity and evaluate inhibitory activity of anti-HTRA1 antibodies. EnzChek® Protease Assay Kit (ThermoFisher Scientific) was used following the manufacturer's instructions. This kit contains casein protein that is heavily labeled with the pH-insensitive green-fluorescent BOPIPY® FL dye that results in almost total quenching of the conjugate's fluorescence. Protease-catalyzed hydrolysis of labeled casein releases highly fluorescent BODIPY® FL dye-labeled peptides. The concomitant increase in fluorescence is proportional to protease activity.
Antibodies identified in HTRA1 binding assays were tested for their ability to inhibit HTRA1 protease activity. The range of antibody concentrations was tested to establish a dose response curve and determine IC₅₀ values.

[9] = target: T1, HTRA1 (construct not stated in the …); test: protease inhibition assay, H2-Opt peptide substrate (FRET); apparent Ki (Ki^app)

Binder	Kd [1] [nM]	koff [1] [s⁻¹]	kon [1] [M⁻¹ s⁻¹]	IC50, HTRA1 enzyme assay [2] [nM]	Kd [6] [nM]	koff [6] [s⁻¹]	kon [6] [M⁻¹ s⁻¹]	IC50, Protease Assay-Casein substrate [7] [nM]	IC50, Protease Assay-H2-Opt peptide [7] [nM]	further results
B1	0.0465	0.000169	3.63e+06							
B2	0.02	0.000197	9.81e+06	0.098						IC50, enzyme assay; sample stored pH 7.4, 40° C., 0 weeks [3]: 67.5 pM; IC50, enzyme assay; sample stored pH 7.4, 40° C., 2 weeks [3]: 75.2 pM; IC50, enzyme assay; sample stored pH 7.4, 40° C., 4 weeks [3]: 93.7 pM
B3	0.0266	0.000189	7.1e+06							
B4	0.0321	0.000275	8.56e+06	0.097						
B5	0.0439	0.000161	3.67e+06	0.084						
B6	0.0405	0.000184	4.54e+06	0.07						Kd [4]: 0.0405 nM; koff [4]: 0.000184 s⁻¹; kon [4]: 4.54e+06 M⁻¹ s⁻¹; IC50 at baseline [5]: 0.07 nM; IC50, enzyme assay; sample stored pH 7.4, 40° C., 0 weeks [3]: 43.4 pM; IC50, enzyme assay; sample stored pH 7.4, 40° C., 2 weeks [3]: 42 pM; IC50, enzyme assay; sample stored pH 7.4, 40° C., 4 weeks [3]: 54.3 pM
B7	0.0249	0.000217	8.7e+06	0.067						
B8					0.14	0.0044	3e+07	0.19	0.12	Ki [8]: 0.035 nM; Ki [9]: 0.092 nM
B9					0.45	0.017	3.8e+07	0.13	0.13	
B10					0.42	0.003	6.9e+06	0.06	0.09	
